# In publication PMC4046963:
# Biological target: Neisseria gonorrhoeae MtrE outer membrane channel (Neisseria gonorrhoeae) (UniProt Q51006)
# Assay: crystal structure; sitting-drop vapor diffusion, 20% PEG 400, 0.2 M sodium acetate pH 4.6, 0.25 M MgSO4, 2% OG, 0.05% DDM; space group P6(3)22, one protomer per asymmetric unit; 3.29 Å
substance,measurement,value
Neisseria gonorrhoeae MtrE outer membrane channel (from UniProt Q51006 1-467) (natural protein),stoichiometry N,3
